Test results: US8840891 (RSR, dated 2014)

What was measured:
[1] = biological target: human TSHR (wild type) expressed in CHO cells (human) (UniProt P16473); assay: cell-based or functional assay
[2] = biological target: human TSHR, wild type, expressed on CHO cells (human) (UniProt P16473); assay: cell-based or functional assay
[3] = biological target: human TSHR, wild type, expressed on CHO cells (human) (UniProt P16473); assay: cell-based or functional assay; remark: listed apart in the source
TSHR coated onto tubes [4] = biological target: T1, TSHR coated onto tubes (human, UniProt P16473 21-764, limits assumed); assay: TSHR coated tubes, competitor 125I-M22 IgG
T1 construct: whole entry named; also called TSHR coated tubes; thyrotropin receptor

TSHR coated onto tubes [5] = biological target: T1, TSHR coated onto tubes; assay: TSHR coated tubes, competitor 125I-TSH
TSHR coated onto tubes [6] = biological target: T1, TSHR coated onto tubes; assay: TSHR coated tubes, competitor 125I-5C9 IgG
[7] = biological target: human TSHR (wild type) expressed in CHO cells (human) (UniProt P16473); assay: cell-based or functional assay; remark: listed apart in the source

| Molecule | % inhib of 125I-M22 IgG binding at 0.01 µg/mL (TSHR coated onto tubes [4]) | % inhib of 125I-M22 IgG binding at 0.1 µg/mL (TSHR coated onto tubes [4]) | % inhib of 125I-M22 IgG binding at 1 µg/mL (TSHR coated onto tubes [4]) | % inhib of 125I-M22 IgG binding at 10 µg/mL (TSHR coated onto tubes [4]) | % inhib of 125I-M22 IgG binding at 100 µg/mL (TSHR coated onto tubes [4]) | % inhib of 125I-TSH binding at 0.01 µg/mL (TSHR coated onto tubes [5]) | % inhib of 125I-TSH binding at 0.1 µg/mL (TSHR coated onto tubes [5]) | % inhib of 125I-TSH binding at 1 µg/mL (TSHR coated onto tubes [5]) | % inhib of 125I-TSH binding at 10 µg/mL (TSHR coated onto tubes [5]) | % inhib of 125I-TSH binding at 100 µg/mL (TSHR coated onto tubes [5]) | % inhib of 125I-5C9 IgG binding at 0.01 µg/mL (TSHR coated onto tubes [6]) | % inhib of 125I-5C9 IgG binding at 0.1 µg/mL (TSHR coated onto tubes [6]) | % inhib of 125I-5C9 IgG binding at 1 µg/mL (TSHR coated onto tubes [6]) | % inhib of 125I-5C9 IgG binding at 10 µg/mL (TSHR coated onto tubes [6]) | % inhib of 125I-5C9 IgG binding at 100 µg/mL (TSHR coated onto tubes [6]) | also measured |
| --- | --- | --- | --- | --- | --- | --- | --- | --- | --- | --- | --- | --- | --- | --- | --- | --- |
| 5C9 F(ab′)2 |  |  |  |  |  |  |  |  |  |  |  |  |  |  |  | cyclic AMP; Example 1; 5C9 F(ab′)2 10 µg/mL + TSH (fmol/cell well) [1]: 916; cyclic AMP; Example 1; 5C9 F(ab′)2 100 µg/mL + TSH (fmol/cell well) [1]: 877; cyclic AMP; Example 1; 5C9 F(ab′)2 100 µg/mL only (fmol/cell well) [1]: 204; cyclic AMP; Example 2; 5C9 F(ab′)2 10 µg/mL + TSH (fmol/cell well) [1]: 1330; cyclic AMP; Example 2; 5C9 F(ab′)2 100 µg/mL + TSH (fmol/cell well) [1]: 1060; cyclic AMP; Example 2; 5C9 F(ab′)2 100 µg/mL only (fmol/cell well) [1]: 414 |
| recombinant human TSH (NIBSC reference preparation 94/674) (from UniProt P01215 25-116; P01222 21-138) (ligand) |  |  |  |  |  |  |  |  |  |  |  |  |  |  |  | cyclic AMP; Exp 1; recombinant human TSH 100 ng/mL only [2]: 12.7 pmol/mL; cyclic AMP; Exp 2; recombinant human TSH 100 ng/mL only [2]: 16.7 pmol/mL; cyclic AMP; Exp 3; recombinant human TSH 100 ng/mL only [2]: 26.4 pmol/mL |
| M22 Fab |  |  |  |  |  |  |  |  |  |  |  |  |  |  |  | cyclic AMP; Exp 1; M22 3 ng/mL [3]: 49.1 pmol/mL; cyclic AMP; Exp 2; M22 3 ng/mL [3]: 68.3 pmol/mL; cyclic AMP; Exp 3; M22 0.3 ng/mL [3]: 21.8 pmol/mL; cyclic AMP; Exp 4; M22 0.3 ng/mL [3]: 31.1 pmol/mL; cyclic AMP production; M22 Fab 3 ng/mL only (fmol/cell well) [1]: 9430 |
| native human TSH (NIBSC reference preparation 81/565) (from UniProt P01215 25-116; P01222 21-132) (ligand) |  |  |  |  |  |  |  |  |  |  |  |  |  |  |  | cyclic AMP; Exp 1; native human TSH 100 ng/mL only [2]: 36.1 pmol/mL; cyclic AMP; Exp 2; native human TSH 100 ng/mL only [2]: 40.8 pmol/mL; cyclic AMP; Exp 3; native human TSH 100 ng/mL only [2]: 31.1 pmol/mL |
| 2B4 IgG (antibody, V domains shown) VH: DVQLQQSGTVLARPGASVRMSCKASGYSFTRYWIHWLKQRPGQGLEWIGAIFPGNRDTSYNQRFKGKAEVTAVTSASTAYLDLSSLTNEDSAVYYCTRWPYYGSIYVNFDYWGQGTTLTVSS VL: DIVMTQSPLSLPVSLGDQASISCRTSQNLVHRNGNTYLHWYLQKPGQSPKLLIYKISNRFSGVPDRFSGSGSGTDFTLKISRVEAEDLGVYFCSQGTHVPPTFGGGTKLEIKR | 1% | 12% | 9% | 19% | 30% | 13.5% | 56% | 82% | 85% | 88.5% | 8% | 23% | 42% | 48% | 72% |  |
| 5C9 Fab (Fab, from another filing, V domains shown) VH: EVQLVESGGGLIQPGGSLRLSCAASGFTVSSNYMSWVRQAPGKGLEWVSVTYSGGSTSYADSVKGRFTISRDNSKNTLYLQMNSLRAEDTAVYYCARGGRYCSSISCYARSGCDYWGQGTLVTVSS VL: AIQMTQSPSSLSASVGDRVTITCRASQSISNYLNWYQQKPGKAPKLLIYAASSLQSGVPSRFSGSGSGTDFTLTISSLQPEDFATYYCQQSYSSPSTTFGQGTKLEIK |  |  |  |  |  |  |  |  |  |  |  |  |  |  |  | cyclic AMP; Example 1; 5C9 Fab 10 µg/mL + TSH (fmol/cell well) [7]: 1280; cyclic AMP; Example 1; 5C9 Fab 100 µg/mL + TSH (fmol/cell well) [7]: 938; cyclic AMP; Example 1; 5C9 Fab 100 µg/mL only (fmol/cell well) [7]: 235; cyclic AMP; Example 2; 5C9 Fab 10 µg/mL + TSH (fmol/cell well) [7]: 4130; cyclic AMP; Example 2; 5C9 Fab 100 µg/mL + TSH (fmol/cell well) [7]: 867; cyclic AMP; Example 2; 5C9 Fab 100 µg/mL only (fmol/cell well) [7]: 212; % inhibition of basal cyclic AMP production; Exp 3; 5C9 F(ab′) 0.001 µg/mL [2]: 3%; % inhibition of basal cyclic AMP production; Exp 3; 5C9 F(ab′) 0.1 µg/mL [2]: 19%; % inhibition of basal cyclic AMP production; Exp 3; 5C9 F(ab′) 1 µg/mL [2]: 23%; % inhibition of basal cyclic AMP production; Exp 3; 5C9 F(ab′) 10 µg/mL [2]: 39%; % inhibition of basal cyclic AMP production; Exp 3; 5C9 F(ab′) 100 µg/mL [2]: 48%; % inhibition of basal cyclic AMP production; Exp 3; 5C9 Fab 0.1 µg/mL [2]: 11%; % inhibition of basal cyclic AMP production; Exp 3; 5C9 Fab 1 µg/mL [2]: 39%; % inhibition of basal cyclic AMP production; Exp 3; 5C9 Fab 10 µg/mL [2]: 46%; % inhibition of basal cyclic AMP production; Exp 3; 5C9 Fab 100 µg/mL [2]: 61% |
| 14D3 IgG (antibody, V domains shown) VH: DVQMQQPGPELVKPGASLKMSCKASGYSFTGYNMHWVKQSHGKSLEWIGYIDPYSGATSYNQKFEGKATLTVDKSSSTAYMQLNSLTSEDSAVYYCARRWDWDPYAMDYWGQGTSVTVSS VL: NILMTQSPAILSVSPGERVSFACRASQSIGTSIHWYQQRTNGSPRLLIKYASESISGIPSRFSGSGSGTDFTLSINSVESEDIADYYCQQTNRWPLTFGAGTKLELKR | 3% | 15% | 37% | 60% | 62% | 4% | 12.5% | 37% | 52% | 57% | 1% | 10% | 35% | 50.5% | 63% |  |
| 17D2 IgG (antibody, V domains shown) VH: DVQIQQSGPELVKPGASVKMSCKASGYSFTAYNMHWVKQTHGKSLEWIGYIDPYSGATSYHQKFKGKATLTVDKSSSTAYMRLNSLTSEDSAVYYCARRWDWDPYAMDYWGQGTSVTVSS VL: SVEMSQSPAILSVSPGERISFSCRASQSIGTSIHWYQQRTNGSPRLLIKYASASISGIPSRFSGSGSGTDFTLSINSVESEDIADYYCQQSNSWPLTFGAGTKLELKR | 1% | 13% | 24% | 39% | 49% | 3% | 7% | 24% | 43% | 56% | 3% | 11% | 26% | 43% | 55% |  |
| 16E5 IgG (antibody, V domains shown) VH: DVQLVQSGPELVKPGASVKMSCKASGYSFTGYNMHWVKQSHGKSLEWIGYIDPYNGATSYNQKFEDKATLTVDKSSSTAYMQLNSLTSEDSAVYYCARRWDWDPYAMDYWGQGTSVTVSS VL: DILLTQSPAILSVSPGERVSFSCRASQSIGTSIHWYQQRTNGSPRLLIKYASESISGIFSRFSGSGSGTDFTLTINSVESEDIADYYCQQSNRWPLTFGAGTKLELKR | 12% | 22% | 40% | 51% | 53% | 9% | 26% | 39% | 44% | 48% | 20% | 34% | 47% | 53% | 59% |  |
